Laboratory results from patent US20220387487A1, “COMPOSITIONS AND METHODS FOR TREATMENT OF CANCER” (Aleta Biotherapeutics Inc., priority 2019, published 2022).
Changes are numbered by the printed parent chain. Names and notes keep the numbering of the source.

B1: W262Q: CD19 variant (protein)
chain: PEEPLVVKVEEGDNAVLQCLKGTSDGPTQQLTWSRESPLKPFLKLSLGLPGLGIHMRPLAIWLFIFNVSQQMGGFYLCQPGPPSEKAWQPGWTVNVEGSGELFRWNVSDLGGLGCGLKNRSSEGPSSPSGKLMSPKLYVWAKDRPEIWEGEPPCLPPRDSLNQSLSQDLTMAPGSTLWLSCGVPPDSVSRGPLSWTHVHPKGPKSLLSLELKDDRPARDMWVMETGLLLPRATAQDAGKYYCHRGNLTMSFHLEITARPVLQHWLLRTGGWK
B2: K212S: CD19 variant (protein)
chain: B1 chain with K212S, Q262W
B3: W262G: CD19 variant (protein)
chain: B1 chain with Q262G
B4: L59G: CD19 variant (protein)
chain: B1 chain with L59G, Q262W
B5: A232V: CD19 variant (protein)
chain: B1 chain with A232V, Q262W
B6: Y240W: CD19 variant (protein)
chain: B1 chain with Y240W, Q262W
B7: V16F: CD19 variant (protein)
chain: B1 chain with V16F, Q262W
B8: R215W: CD19 variant (protein)
chain: B1 chain with R215W, Q262W
B9: I255V: CD19 variant (protein)
chain: B1 chain with I255V, Q262W
B10: G269I: CD19 variant (protein)
chain: B1 chain with Q262W, G269I
B11: L59S: CD19 variant (protein)
chain: B1 chain with L59S, Q262W
B12: L59E: CD19 variant (protein)
chain: B1 chain with L59E, Q262W
B13: W262H: CD19 variant (protein)
chain: B1 chain with Q262H
B14: G226S: CD19 variant (protein)
chain: B1 chain with G226S, Q262W
B15: W264A: CD19 variant (protein)
chain: B1 chain with Q262W, W264A
B16: F64G: CD19 variant (protein)
chain: B1 chain with F64G, Q262W
B17: F66R: CD19 variant (protein)
chain: B1 chain with F66R, Q262W
B18: G269L: CD19 variant (protein)
chain: B1 chain with Q262W, G269L
B19: W62E: CD19 variant (protein)
chain: B1 chain with W62E, Q262W
B20: V16W: CD19 variant (protein)
chain: B1 chain with V16W, Q262W
B21: A257R: CD19 variant (protein)
chain: B1 chain with A257R, Q262W
B22: W264D: CD19 variant (protein)
chain: B1 chain with Q262W, W264D
B23: L261K: CD19 variant (protein)
chain: B1 chain with L261K, Q262W
B24: F64V: CD19 variant (protein)
chain: B1 chain with F64V, Q262W
B25: A257K: CD19 variant (protein)
chain: B1 chain with A257K, Q262W
B26: V260S: CD19 variant (protein)
chain: B1 chain with V260S, Q262W
B27: K212A: CD19 variant (protein)
chain: B1 chain with K212A, Q262W
B28: R57G: CD19 variant (protein)
chain: B1 chain with R57G, Q262W
B29: L20G: CD19 variant (protein)
chain: B1 chain with L20G, Q262W
B30: W264N: CD19 variant (protein)
chain: B1 chain with Q262W, W264N
B31: W262D: CD19 variant (protein)
chain: B1 chain with Q262D
B32: W262K: CD19 variant (protein)
chain: B1 chain with Q262K
B33: W62T/F64V/F66P: CD19 variant (protein)
chain: B1 chain with W62T, F64V, F66P, Q262W
B34: E224G/G226R/L228F: CD19 variant (protein)
chain: B1 chain with E224G, G226R, L228F, Q262W
B35: W62S/F64R/F66S: CD19 variant (protein)
chain: B1 chain with W62S, F64R, F66S, Q262W
B36: W62E/F64R/F66P: CD19 variant (protein)
chain: B1 chain with W62E, F64R, F66P, Q262W
B37: W62E/F64W/F66R: CD19 variant (protein)
chain: B1 chain with W62E, F64W, F66R, Q262W
B38: W62E/F64V/F66V: CD19 variant (protein)
chain: B1 chain with W62E, F64V, F66V, Q262W
B39: E224G/G226E/L228I: CD19 variant (protein)
chain: B1 chain with E224G, G226E, L228I, Q262W
B40: W62D/F64L/F66P: CD19 variant (protein)
chain: B1 chain with W62D, F64L, F66P, Q262W
B41: E224G/G226D/L228V: CD19 variant (protein)
chain: B1 chain with E224G, G226D, L228V, Q262W
B42: W62A/F64R/F66L: CD19 variant (protein)
chain: B1 chain with W62A, F64R, F66L, Q262W
B43: W62W/F64S/F66S: CD19 variant (protein)
chain: B1 chain with F64S, F66S, Q262W
B44: W62T/F64R/F66Q: CD19 variant (protein)
chain: B1 chain with W62T, F64R, F66Q, Q262W
B45: W62R/F64V/F66R: CD19 variant (protein)
chain: B1 chain with W62R, F64V, F66R, Q262W
B46: L59N/I61V/L63L: CD19 variant (protein)
chain: B1 chain with L59N, I61V, Q262W
B47: W62E/F64E/F66V: CD19 variant (protein)
chain: B1 chain with W62E, F64E, F66V, Q262W
B48: W62Y/F64S/F66R: CD19 variant (protein)
chain: B1 chain with W62Y, F64S, F66R, Q262W

system: FMC63; experiment: CD19 variant binding to anti-CD19 antibody FMC63 (score); conditions: Table 1A, CD19 single mutants (positions of SEQ ID NO:2)
Sequence (as listed by the source): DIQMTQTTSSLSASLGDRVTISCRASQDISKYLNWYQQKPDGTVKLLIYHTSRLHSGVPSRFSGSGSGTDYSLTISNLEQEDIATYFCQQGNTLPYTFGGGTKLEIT
Sequence (as listed by the source): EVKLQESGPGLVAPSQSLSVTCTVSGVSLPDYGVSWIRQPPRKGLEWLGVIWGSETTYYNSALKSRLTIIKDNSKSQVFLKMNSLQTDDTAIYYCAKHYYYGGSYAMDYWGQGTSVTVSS

| Molecule | FMC63 Binding Score |
| --- | --- |
| B1 | 6.8 ± .6 |
| B2 | 6.8 ± .6 |
| B3 | 6.4 ± .2 |
| B4 | 6.5 ± .3 |
| B5 | 6.3 ± .2 |
| B6 | 6.3 ± .3 |
| B7 | 7. ± 1. |
| B8 | 7.1 ± 1.1 |
| B9 | 6.4 ± .4 |
| B10 | 6.7 ± .8 |
| B11 | 6.4 ± .4 |
| B12 | 6.3 ± .5 |
| B13 | 6.7 ± 1. |
| B14 | 6.1 ± .4 |
| B15 | 6.3 ± .5 |
| B16 | 6. ± .2 |

| Molecule | FMC63 Binding Score |
| --- | --- |
| B17 | 6. ± .3 |
| B18 | 6.1 ± .4 |
| B19 | 6.4 ± .7 |
| B20 | 6.7 ± 1. |
| B21 | 6.1 ± .5 |
| B22 | 6.2 ± .6 |
| B23 | 6.2 ± .6 |
| B24 | 6. ± .4 |
| B25 | 6.1 ± .5 |
| B26 | 5.8 ± .3 |
| B27 | 6.1 ± .6 |
| B28 | 5.7 ± .2 |
| B29 | 5.7 ± .2 |
| B30 | 9. ± 1.3 |
| B31 | 8.3 ± .8 |
| B32 | 8.2 ± .7 |

same assay, conditions: Table 1B, CD19 triple mutants

| Molecule | FMC63 Binding Score |
| --- | --- |
| B33 | 16.6 ± 5.5 |
| B34 | 12.8 ± 1.7 |
| B35 | 13.2 ± 2.1 |
| B36 | 16.5 ± 5.5 |
| B37 | 14.2 ± 3.2 |
| B38 | 13.4 ± 2.5 |
| B39 | 14.3 ± 3.4 |
| B40 | 16.3 ± 5.5 |
| B41 | 12. ± 1.2 |
| B42 | 13.1 ± 2.3 |
| B43 | 14. ± 3.2 |
| B44 | 16.3 ± 5.5 |
| B45 | 12.3 ± 1.6 |
| B46 | 13.9 ± 3.2 |
| B47 | 16.2 ± 5.5 |
| B48 | 13.7 ± 3.2 |
